In paper PMC5563082 (2017) one finds Kd data, which are given here for 4 molecules.

Numbering of substitutions follows the chain as printed.

The labels stand for the following.
B1: human β-neurexin-1 LNS6 domain with SS4 (β-NRX1_(LNS6)(+4)) (domain or fragment)
chain: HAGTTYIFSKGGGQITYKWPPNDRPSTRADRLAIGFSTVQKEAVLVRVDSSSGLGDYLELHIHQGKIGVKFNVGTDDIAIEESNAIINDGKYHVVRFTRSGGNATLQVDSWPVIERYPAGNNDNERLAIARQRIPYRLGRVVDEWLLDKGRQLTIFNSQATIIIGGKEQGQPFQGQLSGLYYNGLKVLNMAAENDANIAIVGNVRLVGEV
B2: human MDGA2 extracellular domain (MDGA2_(ECTO); Gln21-Lys927) (domain or fragment)
chain: QGVYAPPTVRIVHSGLACNIEEERYSERVYTIREGETLELTCLVTGHPRPQIRWTKTAGSASDRFQDSSVFNETLRITNIQRHQGGRYYCKAENGLGSPAIKSIRVDVYYLDDPVVTVHQSIGEAKEQFYYERTVFLRCVANSNPPVRYSWRRGQEVLLQGSDKGVEIYEPFFTQGETKILKLKNLRPQDYANYSCIASVRNVCNIPDKMVSFRLSNKTASPSIKLLVDDPIVVNPGEAITLVCVTTGGEPAPSLTWVRSFGTLPEKTVLNGGTLTIPAITSDDAGTYSCIANNNVGNPAKKSTNIIVRALKKGRFWITPDPYHKDDNIQIGREVKISCQVEAVPSEELTFSWFKNGRPLRSSERMVITQTDPDVSPGTTNLDIIDLKFTDFGTYTCVASLKGGGISDISIDVNISSSTVPPNLTVPQEKSPLVTREGDTIELQCQVTGKPKPIILWSRADKEVAMPDGSMQMESYDGTLRIVNVSREMSGMYRCQTSQYNGFNVKPREALVQLIVQYPPAVEPAFLEIRQGQDRSVTMSCRVLRAYPIRVLTYEWRLGNKLLRTGQFDSQEYTEYAVKSLSNENYGVYNCSIINEAGAGRCSFLVTGKAYAPEFYYDTYNPVWQNRHRVYSYSLQWTQMNPDAVDRIVAYRLGIRQAGQQRWWEQEIKINGNIQKGELITYNLTELIKPEAYEVRLTPLTKFGEGDSTIRVIKYSAPVNPHLREFHCGFEDGNICLFTQDDTDNFDWTKQSTATRNTKYTPNTGPNADRSGSKEGFYMYIETSRPRLEGEKARLLSPVFSIAPKNPYGPTNTAYCFSFFYHMYGQHIGVLNVYLRLKGQTTIENPLWSSSGNKGQRWNEAHVNIYPITSFQLIFEGIRGPGIEGDIAIDDVSIAEGECAKQDLATK
B3: human MDGA1 extracellular domain (MDGA1_(ECTO); Gln19-Lys925) (domain or fragment)
chain: QGVYAPAQAQIVHAGQACVVKEDNISERVYTIREGDTLMLQCLVTGHPRPQVRWTKTAGSASDKFQETSVFNETLRIERIARTQGGRYYCKAENGVGVPAIKSIRVDVQYLDEPMLTVHQTVSDVRGNFYQEKTVFLRCTVNSNPPARFIWKRGSDTLSHSQDNGVDIYEPLYTQGETKVLKLKNLRPQDYASYTCQVSVRNVCGIPDKAITFRLTNTTAPPALKLSVNETLVVNPGENVTVQCLLTGGDPLPQLQWSHGPGPLPLGALAQGGTLSIPSVQARDSGYYNCTATNNVGNPAKKTVNLLVRSMKNATFQITPDVIKESENIQLGQDLKLSCHVDAVPQEKVTYQWFKNGKPARMSKRLLVTRNDPELPAVTSSLELIDLHFSDYGTYLCMASFPGAPVPDLSVEVNISSETVPPTISVPKGRAVVTVREGSPAELQCEVRGKPRPPVLWSRVDKEAALLPSGLPLEETPDGKLRLERVSRDMSGTYRCQTARYNGFNVRPREAQVQLNVQFPPEVEPSSQDVRQALGRPVLLRCSLLRGSPQRIASAVWRFKGQLLPPPPVVPAAAEAPDHAELRLDAVTRDSSGSYECSVSNDVGSAACLFQVSAKAYSPEFYFDTPNPTRSHKLSKNYSYVLQWTQREPDAVDPVLNYRLSIRQLNQHNAVVKAIPVRRVEKGQLLEYILTDLRVPHSYEVRLTPYTTFGAGDMASRIIHYTEPINSPNLSDNTCHFEDEKICGYTQDLTDNFDWTRQNALTQNPKRSPNTGPPTDISGTPEGYYMFIETSRPRELGDRARLVSPLYNASAKFYCVSFFYHMYGKHIGSLNLLVRSRNKGALDTHAWSLSGNKGNVWQQAHVPISPSGPFQIIFEGVRGPGYLGDIAIDDVTLKKGECPRKQTDPNK
B4: human β-neurexin-1 LNS6 domain lacking SS4 (β-NRX1_(LNS6)(–4); His85-Val265) (domain or fragment)
chain: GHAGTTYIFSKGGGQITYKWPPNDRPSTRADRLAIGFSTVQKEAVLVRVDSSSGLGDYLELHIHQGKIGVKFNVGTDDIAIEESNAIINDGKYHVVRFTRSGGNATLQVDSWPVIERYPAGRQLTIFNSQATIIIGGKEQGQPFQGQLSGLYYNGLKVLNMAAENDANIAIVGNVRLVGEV

For one test, the target named is T1, human NL1(–A+B)_(ECTO), immobilised for SPR (human, biotin on the Avitag (in vivo biotinylation by BirA); N-linked glycan at Asn300).
T1 chain: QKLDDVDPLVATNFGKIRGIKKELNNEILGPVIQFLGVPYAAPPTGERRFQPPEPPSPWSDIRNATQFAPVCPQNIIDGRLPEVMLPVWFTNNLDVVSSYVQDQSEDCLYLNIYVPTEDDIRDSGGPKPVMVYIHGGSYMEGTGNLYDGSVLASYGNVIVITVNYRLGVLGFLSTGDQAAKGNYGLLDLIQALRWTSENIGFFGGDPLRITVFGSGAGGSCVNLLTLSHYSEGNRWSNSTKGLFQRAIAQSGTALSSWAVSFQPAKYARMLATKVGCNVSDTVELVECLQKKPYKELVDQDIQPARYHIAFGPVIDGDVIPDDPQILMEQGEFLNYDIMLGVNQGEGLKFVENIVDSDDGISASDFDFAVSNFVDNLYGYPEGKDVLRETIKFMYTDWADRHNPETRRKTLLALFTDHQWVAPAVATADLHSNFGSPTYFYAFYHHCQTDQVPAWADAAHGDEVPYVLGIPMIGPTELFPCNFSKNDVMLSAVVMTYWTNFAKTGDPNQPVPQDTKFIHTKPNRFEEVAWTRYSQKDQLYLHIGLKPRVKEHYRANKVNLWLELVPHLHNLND
The test can be described thus: SPR. (In SPR one partner is held on a chip, and binding of the other changes the refractive index at the surface.)
Usually Kd stands for the concentration at which binding is half-saturated. Read a low Kd as higher affinity. Turning to B1, the Kd stood at 4760 nM.
Molecule B2 registered a Kd of 9630 nM.
B3: the affinity, expressed as Kd, was 13200 nM.
Take B4: binding was put at a Kd of 1160 nM.

Another test concerns the target T2, human NL1(–A+B Asn300Gln)_(ECTO), immobilised for SPR (human, biotin on the Avitag (in vivo biotinylation by BirA)).
T2 chain: T1 chain with N238Q
Description: SPR.
B1 returned a Kd of 4400 nM.
Take B2: the Kd amounted to 4030 nM.
On the same count and under the same terms, next, B3: 7220 nM; B4: 1090 nM.

The target of a further test is T3, human NL1(+A1+A2–B)_(ECTO), immobilised for SPR (human, biotin on the Avitag (in vivo biotinylation by BirA)).
T3 chain: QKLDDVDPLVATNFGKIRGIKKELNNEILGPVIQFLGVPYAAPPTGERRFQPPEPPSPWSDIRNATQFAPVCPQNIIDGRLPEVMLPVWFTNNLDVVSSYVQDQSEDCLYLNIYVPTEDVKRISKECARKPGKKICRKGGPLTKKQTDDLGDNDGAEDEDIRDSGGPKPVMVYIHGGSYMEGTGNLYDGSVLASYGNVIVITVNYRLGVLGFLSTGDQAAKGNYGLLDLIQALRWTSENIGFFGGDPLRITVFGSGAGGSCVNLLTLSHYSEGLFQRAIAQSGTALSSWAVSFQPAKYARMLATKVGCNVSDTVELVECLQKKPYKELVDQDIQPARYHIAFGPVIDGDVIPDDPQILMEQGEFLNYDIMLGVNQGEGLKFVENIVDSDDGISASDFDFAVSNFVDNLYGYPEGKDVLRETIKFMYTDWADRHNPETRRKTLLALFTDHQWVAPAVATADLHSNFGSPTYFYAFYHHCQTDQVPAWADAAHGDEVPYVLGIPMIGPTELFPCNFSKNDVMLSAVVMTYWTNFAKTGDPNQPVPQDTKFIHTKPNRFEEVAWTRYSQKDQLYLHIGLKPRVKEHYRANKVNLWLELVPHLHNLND
The test can be described thus: SPR.
Take B1: the Kd was 2710 nM.
B2 displayed a Kd of 1410 nM.
B3 registered a Kd of 3050 nM.
B4 registered a Kd of 784 nM.

Another test deals with T4, human NL1(+A2–B)_(ECTO), immobilised for SPR (human, biotin on the Avitag (in vivo biotinylation by BirA)).
T4 chain: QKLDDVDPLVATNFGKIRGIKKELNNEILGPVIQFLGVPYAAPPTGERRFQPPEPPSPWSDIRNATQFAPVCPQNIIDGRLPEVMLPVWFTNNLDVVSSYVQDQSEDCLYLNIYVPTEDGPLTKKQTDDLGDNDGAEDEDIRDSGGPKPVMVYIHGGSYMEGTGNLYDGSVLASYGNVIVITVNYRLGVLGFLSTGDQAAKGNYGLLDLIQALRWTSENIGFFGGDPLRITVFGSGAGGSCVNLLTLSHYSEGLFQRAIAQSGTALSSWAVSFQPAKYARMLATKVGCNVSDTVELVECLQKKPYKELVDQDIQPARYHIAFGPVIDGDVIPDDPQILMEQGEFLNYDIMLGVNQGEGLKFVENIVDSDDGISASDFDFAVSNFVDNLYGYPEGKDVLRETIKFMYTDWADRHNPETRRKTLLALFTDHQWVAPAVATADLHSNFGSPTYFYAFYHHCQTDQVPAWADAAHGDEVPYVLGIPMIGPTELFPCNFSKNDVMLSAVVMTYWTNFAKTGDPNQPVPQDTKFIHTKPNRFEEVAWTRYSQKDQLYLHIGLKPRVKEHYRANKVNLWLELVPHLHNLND
Description: SPR.
For the molecule B1, the affinity, expressed as Kd, was 2750 nM.
The same measure, in the same setting: next, B2: 1460 nM; B3: 3210 nM; B4: 795 nM.
